Experimental data reported in patent US20100112057A1 (published 2010).

How the values were obtained:
[1] = molecular target: T1, streptavidin (streptavidin-coated SA chip) (UniProt P22629 37-163, limits assumed); assay: SPR, Biacore 3000, streptavidin-coated (SA) chip
T1 construct: Surface protein of the commercial SPR chip

[2] = molecular target: the molecule itself; assay: circular dichroism in PBS; concentration dependence of MRE at 222 nm fitted for the Kd of coiled-coil dimerization (unfolding/dissociation of the dimer)

T1 sequence (P22629 37-163 limits assumed): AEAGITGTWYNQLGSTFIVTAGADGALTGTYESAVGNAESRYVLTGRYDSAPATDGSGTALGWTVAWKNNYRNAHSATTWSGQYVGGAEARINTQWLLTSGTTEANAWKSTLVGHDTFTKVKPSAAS

B1: PF4ZIP (peptide)
peptide: CGGRMKQLEDKVKKLLKKNYHLENEVARLKKLVG
notes: Free peptide made by Fmoc solid phase synthesis on Rink Amide MBHA resin; The measurement is the self-association of two such chains into a coiled-coil dimer; also called PF4ZIP peptide
binding result [1]: no binding
Kd [2]: 3.48 µM
